Experimental findings from the RNAGym collection of RNA variant scans (doi:10.1093/molbev/msab373) are described below.

Sequences and labels used below:
B1: Azoarcus group I ribozyme (parent)
chain: GUGCCUUGCGCCGGGAAACCACGCAAGGGAUGGUGUCAAAUUCGGCGAAACCUAAGCGCCCGCCCGGGCGUAUGGCAACGCCGAGCCAAGCUUCGGCGCCUGCGCCGAUGAAGGUGUAGAGACUAGACGGCACCCACCUAAGGCAAACGCUAUGGUGAAGGCAUAGUCCAGGGAGUGGCGAAAGUCACACAAACCGG

In the data set the parent is B1. Put plainly: reverse-splicing fitness (ratio to wild type); higher = more active; in vitro selection; Mg2+ level not given. An outline of the steps:
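An in vitro group I ribozyme library with randomized positions was T7-transcribed and gel-purified. In triplicate, 10 pmol RNA in EPPS pH 7.5 was reacted with 50 pmoles of a 30-nt RNA substrate for 1 h at 37 °C across several added MgCl2 levels (1–48 mM), then stopped with EDTA. Products were reverse transcribed from a substrate-complementary primer, PCR-amplified and sequenced (HiSeq 4000). Fitness is a variant's read proportion after selection over that before, normalised to wild type.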
For GUGCCUUGCGCCGGGAAACCACGCAAGGGAUGGUGUCAAAUUCGGCGAAACCUAAGCGCCCGCCCGGGCGUAUGGCAACGCGGAGCCAAGCUUCGGCGCCUGCGCCGAUGCAGGUGUAGAGACUAGACGGCACCCACCUAAGGCGAACGCUAUGGUGAAGGCAUAGUCUAGGGAGGGGCGAAAGUCACACAAACCGG, the reverse-splicing fitness was found to be 0.00729. As to GUGCCUUGCGCCGGGAAACCACGCAAGGGAUGGUGUCAAAUUCGGCGAAACCUAAGCGCCCGCCCGGGCGUAUGGCAACGCGGAGCCAAGCUUCGGCGCCUGCGCCGAUGCAGGUGUAGAGACUAGACGGCACCCACCUAAGGCGAACGCUAUGGUGAAGGCAUAGUCUAGGGAGCGGCGAAAGUCACACAAACCGG, the reverse-splicing fitness is 0.0148. The figure for GUGCCUUGCGCCGGGAAACCACGCAAGGGAUGGUGUCAAAUUCGGCGAAACCUAAGCGCCCGCCCGGGCGUAUGGCAACGCGGAGCCAAGCUUCGGCGCCUGCGCCGAUGCAGGUGUAGAGACUAGACGGCACCCACCUAAGGCUAACGAUAUGGUGAAGGCAUAGUCGAGGGAGAGGCGAAAGUCACACAAACCGG is 0.0157; for GUGCCUUGCGCCGGGAAACCACGCAAGGGAUGGUGUCAAAUUCGGCGAAACCUAAGCGCCCGCCCGGGCGUAUGGCAACGCGGAGCCAAGCUUCGGCGCCUGCGCCGAUGCAGGUGUAGAGACUAGACGGCACCCACCUAAGGCUAACGAUAUGGUGAAGGCAUAGUCGAGGGAGGGGCGAAAGUCACACAAACCGG it is 0.0081. The result for GUGCCUUGCGCCGGGAAACCACGCAAGGGAUGGUGUCAAAUUCGGCGAAACCUAAGCGCCCGCCCGGGCGUAUGGCAACGCGGAGCCAAGCUUCGGCGCCUGCGCCGAUGCAGGUGUAGAGACUAGACGGCACCCACCUAAGGCUAACGAUAUGGUGAAGGCAUAGUCGAGGGAGCGGCGAAAGUCACACAAACCGG reads 0.0181. The result for GUGCCUUGCGCCGGGAAACCACGCAAGGGAUGGUGUCAAAUUCGGCGAAACCUAAGCGCCCGCCCGGGCGUAUGGCAACGCGGAGCCAAGCUUCGGCGCCUGCGCCGAUGCAGGUGUAGAGACUAGACGGCACCCACCUAAGGCUAACGGUAUGGUGAAGGCAUAGUCCAGGGAGUGGCGAAAGUCACACAAACCGG reads 0.0245. As to GUGCCUUGCGCCGGGAAACCACGCAAGGGAUGGUGUCAAAUUCGGCGAAACCUAAGCGCCCGCCCGGGCGUAUGGCAACGCGGAGCCAAGCUUCGGCGCCUGCGCCGAUGCAGGUGUAGAGACUAGACGGCACCCACCUAAGGCUAACGAUAUGGUGAAGGCAUAGUCCAGGGAGUGGCGAAAGUCACACAAACCGG, the reverse-splicing fitness came out at 0.0253. The figure for GUGCCUUGCGCCGGGAAACCACGCAAGGGAUGGUGUCAAAUUCGGCGAAACCUAAGCGCCCGCCCGGGCGUAUGGCAACGCGGAGCCAAGCUUCGGCGCCUGCGCCGAUGCAGGUGUAGAGACUAGACGGCACCCACCUAAGGCUAACGAUAUGGUGAAGGCAUAGUCCAGGGAGGGGCGAAAGUCACACAAACCGG is 0.0105; for GUGCCUUGCGCCGGGAAACCACGCAAGGGAUGGUGUCAAAUUCGGCGAAACCUAAGCGCCCGCCCGGGCGUAUGGCAACGCGGAGCCAAGCUUCGGCGCCUGCGCCGAUGCAGGUGUAGAGACUAGACGGCACCCACCUAAGGCUAACGAUAUGGUGAAGGCAUAGUCCAGGGAGCGGCGAAAGUCACACAAACCGG it is 0.0248; for GUGCCUUGCGCCGGGAAACCACGCAAGGGAUGGUGUCAAAUUCGGCGAAACCUAAGCGCCCGCCCGGGCGUAUGGCAACGCGGAGCCAAGCUUCGGCGCCUGCGCCGAUGCAGGUGUAGAGACUAGACGGCACCCACCUAAGGCUAACGAUAUGGUGAAGGCAUAGUCCAGGGAGAGGCGAAAGUCACACAAACCGG it is 0.0202. Regarding GUGCCUUGCGCCGGGAAACCACGCAAGGGAUGGUGUCAAAUUCGGCGAAACCUAAGCGCCCGCCCGGGCGUAUGGCAACGCGGAGCCAAGCUUCGGCGCCUGCGCCGAUGCAGGUGUAGAGACUAGACGGCACCCACCUAAGGCUAACGGUAUGGUGAAGGCAUAGUCGAGGGAGAGGCGAAAGUCACACAAACCGG, the reverse-splicing fitness is 0.00806. With GUGCCUUGCGCCGGGAAACCACGCAAGGGAUGGUGUCAAAUUCGGCGAAACCUAAGCGCCCGCCCGGGCGUAUGGCAACGCGGAGCCAAGCUUCGGCGCCUGCGCCGAUGCAGGUGUAGAGACUAGACGGCACCCACCUAAGGCUAACGGUAUGGUGAAGGCAUAGUCGAGGGAGCGGCGAAAGUCACACAAACCGG, the reverse-splicing fitness came out at 0.00714. On to GUGCCUUGCGCCGGGAAACCACGCAAGGGAUGGUGUCAAAUUCGGCGAAACCUAAGCGCCCGCCCGGGCGUAUGGCAACGCGGAGCCAAGCUUCGGCGCCUGCGCCGAUGCAGGUGUAGAGACUAGACGGCACCCACCUAAGGCUAACGAUAUGGUGAAGGCAUAGUCUAGGGAGGGGCGAAAGUCACACAAACCGG, for which the reverse-splicing fitness was 0.00816. With GUGCCUUGCGCCGGGAAACCACGCAAGGGAUGGUGUCAAAUUCGGCGAAACCUAAGCGCCCGCCCGGGCGUAUGGCAACGCGGAGCCAAGCUUCGGCGCCUGCGCCGAUGCAGGUGUAGAGACUAGACGGCACCCACCUAAGGCUAACGAUAUGGUGAAGGCAUAGUCUAGGGAGAGGCGAAAGUCACACAAACCGG, the reverse-splicing fitness is 0.0139.

GUGCCUUGCGCCGGGAAACCACGCAAGGGAUGGUGUCAAAUUCGGCGAAACCUAAGCGCCCGCCCGGGCGUAUGGCAACGCGGAGCCAAGCUUCGGCGCCUGCGCCGAUGCAGGUGUAGAGACUAGACGGCACCCACCUAAGGCUAACGAUAUGGUGAAGGCAUAGUCUAGGGAGCGGCGAAAGUCACACAAACCGG: the reverse-splicing fitness came out at 0.014.
